Ends that are not written are not given here.
Experiments:
[1] = target: the molecule itself; assay: transmission electron microscopy; time course of the probe solution with or without irradiation (ADP-1 50 uM; 365 nm, 32 mW/cm^2, 1 min)
[2] = target: the molecule itself; assay: fluorescence lifetime imaging microscopy (self-quenching); SH-SY5Y cells treated with 1 uM ADP-2 and photoinitiated; fixed 2, 12 and 24 h after UV

| Protein | binding result [1] | binding result [2] |
| --- | --- | --- |
| CGAGAGAGAGAGAGAGAGAGAGAGA (N-terminal cysteine followed by 12 glycine-alanine repeats; poly-GA dipeptide repeat translated from the G4C2 repeat expansion of C9orf72 (not part of the C9orf72 protein itself); also called (GA)12; ADP-1-derived GA DPRs; source: synthetic peptide (Fmoc chemistry, HPLC purified), released from ADP-1 by 365-nm light; also released inside SH-SY5Y cells treated with ADP-1) [GA DPRs fragment photoreleased from ADP-1 [cysteine-(glycine-alanine)12]] | binds |  |
| C(Alexa Fluor 488 C5 maleimide)GAGAGAGAGAGAGAGAGAGAGAGA (N-terminal cysteine (labelled) followed by 12 glycine-alanine repeats; poly-GA dipeptide repeat of the C9orf72 repeat expansion; also called AF-488-labeled GA DPRs; ADP-2-derived GA DPRs; source: also released inside SH-SY5Y cells treated with ADP-2) |  | binds |
